Reference: US12492373B2, “Production method for nerve tissue” (Racthera Co., Ltd., priority 2014, dated 2025)

Columns and labels:
[1] = test system: human iPS cells (Ff-I01 strain); assay: Immunostaining of aggregate sections for retinal tissue marker Chx10; type: cell-based
Description: (§1) Cell aggregates on day 16 after the start of suspension culturing were fixed with 4% para-formaldehyde to prepare frozen sections. These frozen sections were immunostained for Chx10 (anti-Chx10 antibody, Exalpha, sheep), which is one of the retinal tissue markers. These immunostained sections were observed under a fluorescence microscope.
Cell aggregates on day 16 after the start of suspension culturing were fixed with 4% para-formaldehyde to prepare frozen sections. These frozen sections were immunostained for Chx10 (anti-Chx10 antibody, Exalpha, sheep), which is one of the retinal tissue markers, and observed under a fluorescence microscope. […] In addition, the proportion of Chx10-positive cells in the total cells is about 80% under conditions with the addition of BMP4 twice to maintain the final concentration of 5 nM (FIG. 23, D)
The cell aggregates on day 19 after the start of suspension culturing were fixed with 4% para-formaldehyde to prepare frozen sections. These frozen sections were immunostained for Chx10 (anti-Chx10 antibody, Exalpha, sheep), which is one of the retinal tissue markers. These immunostained sections were observed under an inverted fluorescence microscope. As a result, the proportion of Chx10-positive cells in the total cells is about 70% under conditions with the addition of BMP4 twice to maintain the final concentration of 1.5 nM ([…]). In addition, the proportion of Chx10-positive cells in the total cells is about 90% under conditions with the addition of BMP4 twice to maintain the final concentration of 5 nM (FIG. 34, D).
as §1, with “The thus-prepared cell” for “Cell”, “19” for “16”, “markers, and” for “markers. These immunostained sections were”

[2] = test system: human iPS cells (Ff-I01 strain); assay: Neural tissue / neuroepithelium formation in cell aggregates, bright field observation; type: cell-based
Description: At the time of the start of suspension culturing (day 0 after the start of suspension culturing, […]), Y27632 ([…]) were added to the above serum-free medium (FIG. 22). By day 2 after the start of suspension culturing, a cell aggregate was formed (step 2 completed, step 3 start) under any conditions. On day 3 or later from the start of suspension culturing, BMP4 was added under 3 conditions including the following conditions 1-3. • Condition 1: (+BMP4 addition once) On day 3 of suspension culturing, a medium (50 μl) free of Y27632 and SAG, and containing human recombinant BMP4 (manufactured by R&D) was added such that the final concentration of exogenous human recombinant BMP4 was 1.5 nM (55 ng/ml). On day 6 or later from the start of suspension culturing, a half amount of the medium was changed to a serum-free medium free of Y27632, SAG and human recombinant BMP4. • Condition 2: (+BMP4 addition twice) On day 3 of suspension culturing, a medium (50 μl) free of Y27632, SAG and containing human recombinant BMP4 (manufactured by R&D) was added such that the final concentration of exogenous human recombinant BMP4 was 1.5 nM (55 ng/ml). On day 6 from the start of suspension culturing, 50 μl of the medium was discarded, and 50 μl of a medium free of Y27632 and SAG and containing human recombinant BMP4 (manufactured by R&D) was added to maintain the final concentration of exogenous human recombinant BMP4 at 1.5 nM (55 ng/ml). On day 9 or later from the start of suspension culturing, a half amount of the medium was changed with a serum-free medium free of Y27632, SAG, and human recombinant BMP4. • Condition 3: (+BMP4 addition three times) On day 3 of suspension culturing, a medium (50 μl) free of Y27632, SAG and containing human recombinant BMP4 (manufactured by R&D) was added such that the final concentration of exogenous human recombinant BMP4 was 1.5 nM (55 ng/ml). On days 6 and 9 from the start of suspension culturing, 50 μl of the medium was discarded, and 50 μl of a medium free of Y27632 and SAG and containing human recombinant BMP4 (manufactured by R&D) was added to maintain the final concentration of exogenous human recombinant BMP4 at 1.5 nM (55 ng/ml). On day 12 or later from the start of suspension culturing, a half amount of the medium was changed with a serum-free medium free of Y27632, SAG and human recombinant BMP4. […]
On day 3 after the start of suspension culturing, a medium (50 μl) free of Y27632 and SAG, and containing human recombinant BMP4 (manufactured by R&D) was added such that the final concentration of exogenous human recombinant BMP4 was 1.5 nM (55 ng/ml) or 5 nM (183 ng/ml). […]

B1: BMP4: human recombinant BMP4 (manufactured by R&D), BMP signal transduction pathway activating substance (protein, UniProt P12644 293-408, looked up)
Bone morphogenetic protein 4: SPKHHSQRARKKNKNCRRHSLYVDFSDVGWNDWIVAPPGYQAFYCHGDCPFPLADHLNSTNHAIVQTLVNSVNSSIPKACCVPTELSAISMLYLDEYDKVVLKNYQEMVVEGCGCR
For B1, which “proportion of Chx10-positive cells in the total cells” value (from here on “proportion of Chx10-positive cells”) ([1]; SAG 300 nM 2 days in step 1, SAG 300 nM in step 2, BMP4 1.5 nM added 2 or 3 times, day 16) is on record?
The value was “about 80%”.

And the “proportion of Chx10-positive cells” value ([1]; SAG 300 nM 2 days in step 1, SAG 300 nM in step 2, BMP4 1.5 nM added once (day 3), day 16)?
The value was “about 60%”.

And the “proportion of Chx10-positive cells” value ([1]; StemFit AK03, SAG 300 nM 2 days in step 1, SAG 1000 nM in step 2, BMP4 added twice to maintain 1.5 nM, day 16)?
The value was “about 70%”.

And the “proportion of Chx10-positive cells” value ([1]; StemFit AK03, SAG 300 nM 2 days in step 1, SAG 1000 nM in step 2, BMP4 added twice to maintain 5 nM, day 16)?
Its value is “about 80%”.

And the “proportion of Chx10-positive cells” value ([1]; StemFit AK03N, SAG 300 nM 2 days in step 1, SAG 500 nM in step 2, BMP4 added twice to maintain 1.5 nM, day 19)?
The value was “about 70%”.

And the “proportion of Chx10-positive cells” value ([1]; StemFit AK03N, SAG 300 nM 2 days in step 1, SAG 500 nM in step 2, BMP4 added twice to maintain 5 nM, day 19)?
The value was “about 90%”.

What about the “cell aggregate and neural tissue formation” value ([2]; SAG 300 nM 2 days in step 1, SAG 300 nM in step 2, BMP4 1.5 nM added 1, 2 or 3 times in step 3, day 16) of the same molecule?
The value was “a neural tissue could be formed efficiently”.

And the “cell aggregate and neural tissue formation” value ([2]; SAG 300 nM 2 days in step 1, SAG 1000 nM in step 2, BMP4 at 1.5 nM and 5 nM in step 3, day 16)?
The value was “a neural tissue could be formed efficiently”.

And the “cell aggregate and neural tissue formation” value ([2]; StemFit AK03N, SAG 300 nM 2 days in step 1, SAG 500 nM in step 2, BMP4 at 1.5 nM or 5 nM, day 19)?
Its value is “a neural tissue can be formed efficiently”.
